Changes are numbered by the printed parent chain.
How the values were obtained:
[1] = target: T1, control peptide A2E-19/HLA-A*02:01 complex on T2 cells (member of the P19 mixture) (human); assay: flow cytometry, phage on T2 cells
T1 construct: Loaded on T2 cells as part of the mixture of 19 control peptides
Experimental: (§1) Individual phage clones from enriched phage display panning pools against PSA146/HLA-A*02:01 complex were incubated in the coated plates. Binding of the phage clones was detected by HRP-conjugated anti-M13 antibodies and developed using HRP substrate. The absorbance was read at 450 nm. […] Then, unique antibody clones were identified through DNA sequencing of ELISA-positive clones. […] T2 cells loaded with different peptides and β2M were first stained with purified scFv phage clones, followed by staining with a mouse anti-M13 mAb, and finally R-PE conjugated horse anti-mouse IgG from Vector Labs. Each step of the staining was performed for between 30-60 minutes on ice and the cells were washed twice between stainings. All 16 clones recognized PSA146-loaded T2 cells specifically. FIG. 3 provides examples of PSA146/HLA-A*02:01 specific phage clone binding to peptide-loaded T2 cells through FACS.

Bio-P19 member A2E-1 = target: T2, Bio-P19 member A2E-1 (chain 2: C-terminal BirA substrate peptide (BSP), enzymatically biotinylated; its letters are not printed in the patent and it is left out); assay: phage ELISA, streptavidin plate, anti-M13-HRP
T2 construct: also called biotinylated control peptide A2E-1/HLA-A*02:01 monomer
Experimental: as §1

Bio-P19 member A2E-10 = target: T3, Bio-P19 member A2E-10 (chain 2: C-terminal BirA substrate peptide (BSP), enzymatically biotinylated; its letters are not printed in the patent and it is left out); assay: phage ELISA, streptavidin plate, anti-M13-HRP
T3 construct: also called biotinylated control peptide A2E-10/HLA-A*02:01 monomer
Experimental: as §1

Bio-P19 member A2E-11 = target: T4, Bio-P19 member A2E-11 (chain 2: C-terminal BirA substrate peptide (BSP), enzymatically biotinylated; its letters are not printed in the patent and it is left out); assay: phage ELISA, streptavidin plate, anti-M13-HRP
T4 construct: also called biotinylated control peptide A2E-11/HLA-A*02:01 monomer
Experimental: as §1

Bio-P19 member A2E-13 = target: T5, Bio-P19 member A2E-13 (chain 2: C-terminal BirA substrate peptide (BSP), enzymatically biotinylated; its letters are not printed in the patent and it is left out); assay: phage ELISA, streptavidin plate, anti-M13-HRP
T5 construct: also called biotinylated control peptide A2E-13/HLA-A*02:01 monomer
Experimental: as §1

Bio-P19 member A2E-14 = target: T6, Bio-P19 member A2E-14 (chain 2: C-terminal BirA substrate peptide (BSP), enzymatically biotinylated; its letters are not printed in the patent and it is left out); assay: phage ELISA, streptavidin plate, anti-M13-HRP
T6 construct: also called biotinylated control peptide A2E-14/HLA-A*02:01 monomer
Experimental: as §1

Bio-P19 member A2E-15 = target: T7, Bio-P19 member A2E-15 (chain 2: C-terminal BirA substrate peptide (BSP), enzymatically biotinylated; its letters are not printed in the patent and it is left out); assay: phage ELISA, streptavidin plate, anti-M13-HRP
T7 construct: also called biotinylated control peptide A2E-15/HLA-A*02:01 monomer
Experimental: as §1

Bio-P19 member A2E-16 = target: T8, Bio-P19 member A2E-16 (chain 2: C-terminal BirA substrate peptide (BSP), enzymatically biotinylated; its letters are not printed in the patent and it is left out); assay: phage ELISA, streptavidin plate, anti-M13-HRP
T8 construct: also called biotinylated control peptide A2E-16/HLA-A*02:01 monomer
Experimental: as §1

Bio-P19 member A2E-17 = target: T9, Bio-P19 member A2E-17 (chain 2: C-terminal BirA substrate peptide (BSP), enzymatically biotinylated; its letters are not printed in the patent and it is left out); assay: phage ELISA, streptavidin plate, anti-M13-HRP
T9 construct: also called biotinylated control peptide A2E-17/HLA-A*02:01 monomer
Experimental: as §1

Bio-P19 member A2E-19 = target: T10, Bio-P19 member A2E-19 (chain 2 carries a C-terminal BirA substrate peptide (BSP), enzymatically biotinylated; the BSP letters are not given in the patent and are left out); assay: phage ELISA, streptavidin plate, anti-M13-HRP
T10 construct: also called biotinylated control peptide A2E-19/HLA-A*02:01 monomer
Experimental: as §1

Bio-P19 member A2E-21 = target: T11, Bio-P19 member A2E-21 (chain 2 carries a C-terminal BirA substrate peptide (BSP), enzymatically biotinylated; the BSP letters are not given in the patent and are left out); assay: phage ELISA, streptavidin plate, anti-M13-HRP
T11 construct: also called biotinylated control peptide A2E-21/HLA-A*02:01 monomer
Experimental: as §1

Bio-P19 member A2E-4 = target: T12, Bio-P19 member A2E-4 (chain 2 carries a C-terminal BirA substrate peptide (BSP), enzymatically biotinylated; the BSP letters are not given in the patent and are left out); assay: phage ELISA, streptavidin plate, anti-M13-HRP
T12 construct: also called biotinylated control peptide A2E-4/HLA-A*02:01 monomer
Experimental: as §1

Bio-P19 member A2E-5 = target: T13, Bio-P19 member A2E-5 (chain 2 carries a C-terminal BirA substrate peptide (BSP), enzymatically biotinylated; the BSP letters are not given in the patent and are left out); assay: phage ELISA, streptavidin plate, anti-M13-HRP
T13 construct: also called biotinylated control peptide A2E-5/HLA-A*02:01 monomer
Experimental: as §1

Bio-P19 member A2E-6 = target: T14, Bio-P19 member A2E-6 (chain 2 carries a C-terminal BirA substrate peptide (BSP), enzymatically biotinylated; the BSP letters are not given in the patent and are left out); assay: phage ELISA, streptavidin plate, anti-M13-HRP
T14 construct: also called biotinylated control peptide A2E-6/HLA-A*02:01 monomer
Experimental: as §1

Bio-P19 member A2E-7 = target: T15, Bio-P19 member A2E-7 (chain 2 (heavy): C-terminal BirA substrate peptide, biotinylated there by BirA; tag letters not given, left out); assay: phage ELISA, streptavidin plate, anti-M13-HRP
T15 construct: also called biotinylated control peptide A2E-7/HLA-A*02:01 monomer; not shown: BirA substrate peptide (BSP) tag at the C-terminus of the heavy chain
Experimental: as §1

Bio-P19 member A2E-8 = target: T16, Bio-P19 member A2E-8 (chain 2 (heavy): C-terminal BirA substrate peptide, biotinylated there by BirA; tag letters not given, left out); assay: phage ELISA, streptavidin plate, anti-M13-HRP
T16 construct: also called biotinylated control peptide A2E-8/HLA-A*02:01 monomer; not shown: BirA substrate peptide (BSP) tag at the C-terminus of the heavy chain
Experimental: as §1

Bio-P19 member A2E-9 = target: T17, Bio-P19 member A2E-9 (chain 2 (heavy): C-terminal BirA substrate peptide, biotinylated there by BirA; tag letters not given, left out); assay: phage ELISA, streptavidin plate, anti-M13-HRP
T17 construct: also called biotinylated control peptide A2E-9/HLA-A*02:01 monomer; not shown: BirA substrate peptide (BSP) tag at the C-terminus of the heavy chain
Experimental: as §1

Measured: binding result

B1: PSA146/HLA-A*02:01-specific scFv phage clone #2 (scFv, V domains shown)
VH: EVQLVQSGAEVKRPGSSVKVSCKASGGTFSSYAINWVRRAPGQGLEWMGKIIPIPGITNYAQKFQDRVTFTADTSTNIAYMELSSLRSEDTAMYYCARSYKWGSSLVDAWGQGTLVTVSS
VL: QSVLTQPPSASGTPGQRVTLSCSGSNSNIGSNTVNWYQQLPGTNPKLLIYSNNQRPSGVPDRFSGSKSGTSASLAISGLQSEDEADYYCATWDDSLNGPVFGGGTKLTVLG
no binding: all assays above

B2: PSA146/HLA-A*02:01-specific scFv phage clone #10 (scFv, V domains shown)
VH: QVQLVQSGAEVKKPGSSVKVSCKASGGTFSSYAISWVRQAPGQGLEWMGWINPNSGGTNYAQKFQGRVTMTRDTSISTAYMELSRLRSDDTAVYYCARWSYYYFQQFWSLDGWGQGTLVTVSS
VL: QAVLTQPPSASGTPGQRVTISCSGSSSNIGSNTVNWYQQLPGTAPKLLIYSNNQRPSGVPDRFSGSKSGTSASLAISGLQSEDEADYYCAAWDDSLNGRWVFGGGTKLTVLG
no binding: all assays above

B3: PSA146/HLA-A*02:01-specific scFv phage clone #6 (scFv, V domains shown)
VH: EVQLVQSGAEVKKPGASVKVSCKASGYTFTGYYIHWVRQAPGQGLEWMGGFDPEDGETIYAQKFQDRVTMTADTSTDTAYMELSSLRSEDTAVYYCARYGFDYWGQGTLVTVSS
VL: QAVVTQEPSLTVSPGGTVTLTCASSTGAVTSGYYPNWFQLKPGQAPRALIYTTGKKHSWAPARFSGSLLGGKAALTLSGVQPEDEAEYYCLLYSGGVWVFGGGTKLTVLG
no binding: all assays above

B4: PSA146/HLA-A*02:01-specific scFv phage clone #3 (scFv, V domains shown)
VH: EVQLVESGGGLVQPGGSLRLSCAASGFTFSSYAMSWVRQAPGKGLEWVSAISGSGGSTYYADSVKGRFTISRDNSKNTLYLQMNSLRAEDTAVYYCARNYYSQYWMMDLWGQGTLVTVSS
VL: QSVLTQPPSVSGAPGQRVTISCTGSSSNFGAGYDVHWYQQLPGAAPKLLIYGDTNRPSGVPDRFSGSKSGTSASLAITGLQAEDEADYYCQSYDTSLSGSVFGGGTKLTVLG
no binding: all assays above

B5: PSA146/HLA-A*02:01-specific scFv phage clone #9 (scFv, V domains shown)
VH: QVQLVQSGAEVKKPGASVKVSCKASGYTFTSYGISWVRQAPGQGLEWMGWISAYNGNTNYAQKLQGRVTMTTDTSTSTAYMELRSLRSDDTAVYYCARSSQYYVWDSWGQGTLVTVSS
VL: B4 VL with L4V, A44T, D53N, T54S, T95S, S100W
no binding: all assays above

B6: PSA146/HLA-A*02:01-specific scFv phage clone #5 (scFv, V domains shown)
VH: QVQLVQSGAEVKKPGDSVKVSCKPSGYNFLNYGINWVRQAPGQGLEWMGWISTYTGNTNYAQKLQGRVTFTTDTSTSTAYMEMRSLRSDDTAVYYCARSSEYYTWDHWGQGTLVTVSS
VL: B4 VL with F29I, A44T, D53N, T54S, T95S, S100W
no binding: all assays above

Source: patent publication US20200087400A1 (EUREKA THERAPEUTICS, published 2020)
